# Measured values: publication PMC11661448
# B1: EFR3A (721 to 791) [human] / TTC7B-FAM126A (1 to 308) [human] (parent)
# chain 1: MATKKAGSRLETEIERCRSECQWERIPELVKQLSAKLIANDDMAELLLGESKLEQYLKEHPLRQGASPRGPKPQLTEVRKHLTAALDRGNLKSEFLQESNLIMAKLNYVEGDYKEALNIYARVGLDDLPLTAVPPYRLRVIAEAYATKGLCLEKLPISSSTSNLHVDREQDVITCYEKAGDIALLYLQEIERVILSNIQNRSPKPGPAPHDQELGFFLETGLQRAHVLYFKNGNLTRGVGRFRELLRAVETRTTQNLRMTIARQLAEILLRGMCEQSYWNPLEDPPCQSPLDDPLRKGANTKTYTLTRRARVYSGENIFCPQENTEEALLLLLISESMANRDAVLSRIPEHKSDRLISLQSASVVYDLLTIALGRRGQYEMLSECLERAMKFAFEEFHLWYQFALSLMAAGKSARAVKVLKECIRLKPDDATIPLLAAKLCMGSLHWLEEAEKFAKTVVDVGEKTSEFKAKGYLALGLTYSLQATDASLRGMQEVLQRKALLAFQRAHSLSPTDHQAAFYLALQLAISRQIPEALGYVRQALQLQGDDANSLHLLALLLSAQKHYHDALNIIDMALSEYPENFILLFSKVKLQSLCRGPDEALLTCKHMLQIWKSCYNLTNPSDSGRGSSLLDRTIADRRQLNTITLPDFSDPETGSVHATSVAASRVEQALSEVASSLQSSAPKQGPLHPWMTLAQIWLHAAEVYIGIGKPAEATACTQEAANLFPMSHNVLYMRGQIAELRGSMDEARRWYEEALAISPTHVKSMQRLALILHQLGRYSLAEKILRDAVQVNSTAHEVWNGLGEVLQAQGNDAAATECFLTALELEASSPAVPFTIIPRVL
# chain 2: MFTSEKGVVEEWLSEFKTLPETSLPNYATNLKDKSSLVSSLYKVIQEPQSELLEPVCHQLFEFYRSGEEQLLQFTLQFLPELIWCYLAVSASRNVHSSGCIEALLLGVYNLEIVDKQGHTKVLSFTIPSLSKPSVYHEPSSIGSMALTESALSQHGLSKVVYSGPHPQREMLTAQNRFEVLTFLLLCYNAALTYMPSVSLQSLCQICSRICVCGYPRQHVRKYKGISSRIPVSSGFMVQMLTGIYFAFYNGEWDLAQKALDDIIYRAQLELYPEPLLVANAIKASLPHGPMKSNKEGTRCIQVEITPT
# chain 3: SNTEEITFEALKKAIDTSGMEEQEKEKRRLVIEKFQKAPFEEIAAQCESKANLLHDRLAQILELTIRPPPS
# Variants of: B1
# Assay: BLI
# Settings: with TTC7B-FAM126A (1 to 308) [human]; His-EFR3A loaded on the anti-penta-His tip at 200 nM, TTC7B-FAM126A at 500 nM; 25°C; 20 mM HEPES (pH 7.5), 150 mM NaCl; read off a plot
row,Variant,response [nm]
1,chain 3 F40A,0.84
2,chain 3 K12E,0.27
3,chain 3 I43A,0.45
4,chain 3 A14R,0.23
5,chain 3 F8A,0.47
6,chain 3 K50E,0.82
7,chain 3 L11A,0.01
8,chain 3 L11R,0.17
9,chain 3 F35A,-0.02
10,chain 3 R57E,1.3
11,chain 3 I61A,1.5

# Same assay, conditions: with EFR3A (721 to 791) [human]; His-EFR3A loaded on the anti-penta-His tip at 200 nM, TTC7B-FAM126A at 500 nM; 25°C; 20 mM HEPES (pH 7.5), 150 mM NaCl; read off a plot
row,Variant,response [nm]
1,chain 1 R539E,1.2
2,chain 1 L610A,0.85
3,chain 2 F61A,0.37
4,chain 1 A702R,-0.07
5,chain 2 A103R,0.08
6,chain 2 H58E,1.6
7,chain 1 W699A,1.4
8,chain 2 L106F,1.1
